The experiment addresses EphA2 receptor tyrosine kinase (human) (UniProt P29317). Briefly: cell-based or functional assay.

For “DT390-ephrinA1 (from UniProt P00588 33-422)”, the cell proliferation assay, U-251 MG GBM cells stood at 15 nM.
